The values that follow come from patent CN114106159A (ANYUAN MEDICINE SCIENCE AND TECH SHANGHAI LIMITED COMPANY, dated 2022).

Assay [1] addresses T1, SARS-CoV-2 S1蛋白 (ACRO Biosystems) (SARS-CoV-2, UniProt P0DTC2 16-685).
T1 construct: domain: S1
Put plainly: competition ELISA, coated SARS-CoV-2 S1, HRP-hACE2-Fc as competitor. In general terms: An ELISA detects its analyte on a solid surface through an enzyme-linked reagent.

For the next assay, the target named is T2, 刺突S蛋白-鼠Fc融合蛋白 (S-mFc) (SARS-CoV-2; mouse, UniProt P0DTC2 14-1213).
T2 construct: domain: S蛋白全长区段
Put plainly: flow cytometry, blocking of S-mFc binding to 293T-ACE2 cells. For orientation: A flow cytometer gives signals particle by particle.

Assay [2] concerns the target T3, SARS-CoV S1蛋白 (ACRO Biosystems) (SARS-CoV, UniProt P59594 14-667).
T3 construct: domain: S1
Nature of the assay: indirect ELISA, SARS-CoV S1 coated at 0.1 μg/mL.

B1: 人源化抗体hS1B-91-3 (humanized antibody) (antibody, V domains shown)
VH: EVQLVQSGAEVKKPGSSVKVSCKASGYSFTDYWLHWVRQAPGQGLEWIGMLDPSDGETRLNQKFKDKATLTVDKSTTTAYMQLSSLRSEDTAVYYCARRHFGYDFDYWGQGTTVTVSS
VL: DIVMTQSPSSLPVTPGQPASISCRSSKSLLHSNGNTYLYWFLQKPGKSPQLLIYRMSNLASGVPDRFSGSGSGTDFTLKISRVEAEDVGVYYCMQHLEYPLTFGGGTKVEIKR
notes: also called 人源化单克隆抗体hS1B-91-3
For orientation: EC50 means the concentration giving half of the maximal effect. Read a high EC50 as a less potent agent. As usually defined, the IC50 is the concentration that inhibits the measured activity by half. Higher therefore signals weaker potency in that assay. Molecule B1 returned a concentration for a half-maximal effect (EC50) in assay [1] of 0.0738 µg/mL. For the same molecule, in the assay with 刺突S蛋白-鼠Fc融合蛋白 (S-mFc), the IC50 was determined as 0.00813 µg/mL.

B2: 鼠源抗体S1B-91-3 (murine monoclonal antibody against SARS-CoV-2 S1) (antibody, V domains shown)
VH: QVQLQQSGPQLVRPGASVKISCKASGYSFTDYWLHWVKQRPGQGLEWIGMLDPSDGETRLNQKFKDKATLTVDKSSTTAYMQLSSPTSEDSAVYYCARRHFGYDFDYWGQGTTLTVSS
VL: DIVMTQAAPSVPVTPGESVSISCRSSKSLLHSNGNTYLYWFLQRPGQSPQLLIYRMSNLASGVPDRFSGSGSGTAFTLRISRVEAEDVGVYYCMQHLEYPLTFGGGTKLEVK
notes: also called 鼠源单抗S1B-91-3; 鼠抗S1B-91-3
With B2, the binding result in assay [2] is “no binding”. In the assay with 刺突S蛋白-鼠Fc融合蛋白 (S-mFc), the IC50 turned out to be 0.0137 µg/mL.
